Here are results for 1 molecule from publication PMC7523994, “Relationships between puroindoline A-prolamin interactions and wheat grain hardness” (PLoS ONE, 2020).

A word on the Kd: it is the equilibrium constant for the complex coming apart. A higher Kd goes with a looser complex. One may read the koff as a measure of how fast the partners let go of each other. High values mean fast dissociation, low ones slow dissociation. As usually defined, the kon is a measure of how fast the partners come together.

The target of assay [1] is T1, puroindoline A (Triticum aestivum, UniProt P33432 29-148).
T1 construct: puroindoline A (PINA) of Triticum aestivum cv; Recital, purified from grain; about 13 kDa, five disulfide bonds, tryptophan-rich domain; The Pina allele of cv; The preparation probably holds several C-terminally processed forms; also called PINA
T1 sequence (looked up): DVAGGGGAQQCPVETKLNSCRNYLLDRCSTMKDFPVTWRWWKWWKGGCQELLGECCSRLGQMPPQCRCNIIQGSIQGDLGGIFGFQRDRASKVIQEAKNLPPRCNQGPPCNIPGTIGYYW
Put plainly: SPR; (PQQPY)8 covalently bound to a CM5 chip; PINA 2 to 20 μM flowed over, 25°C, Hepes buffer pH 7.4; steady-state fit, 1:1 Langmuir model. The following applies: both partners purified. A general note: SPR reads the build-up and loss of mass on a sensor chip optically.

The target of assay [2] is T1, puroindoline A. The experiment in a line: SPR; α-gliadin, γ-gliadin or (PQQPY)8 covalently bound to a CM5 chip (EDC/NHS, 10 mM acetate pH 4.7); PINA flowed over at 10 μL/min, 25°C, 10 mM Hepes pH 7.4, 150 mM NaCl, 3.4 mM EDTA, 0.005% P20; global kinetic fit, 1:1 Langmuir model. The following applies: both partners purified.

B1: recombinant polypeptide (PQQPY)8 (peptide)
chain: PQQPYPQQPYPQQPYPQQPYPQQPYPQQPYPQQPYPQQPY
notes: written out from '(PQQPY)8'; measured mass 4924.5 Da, theoretical 4924.3 Da; The fusion is printed as thioredoxin-DP-(PQQPY)8 and was cut in formic acid; The printed theoretical mass of 4924.3 Da fits 40 residues (eight repeats, monoisotopic) without a further proline; also called (Pro-Gln-Gln-Pro-Tyr)8; spr8; source: BLR strain, pETb32 vector, thioredoxin fusion; not shown: thioredoxin, …
In the case of B1, binding in assay [1] was put at a Kd of 7.22 ± 2.8 µM. In assay [2], this molecule returned a Kd of 0.29 ± 0.005 µM, a koff of 0.0015 ± 0.1 s⁻¹ and a kon of 5000 ± 0.03 M⁻¹ s⁻¹.
